For the assay, the target named is amyloid β-peptide (human, 1-40) (human). As to the kind of experiment: SPR; Biacore 3000; Aβ immobilised by amine coupling on a CM5 chip; analytes injected in 10 mM HEPES-NaOH pH 7.4, 0.15 M NaCl, 0.0005% Tween 20; 25°C; hMK 0.62-20 μg/ml for the constant, all other analytes 5 μg/ml.

B1: human midkine (natural protein)
chain: VAKKKDKVKKGGPGSECAEWAWGPCTPSSKDCGVGFREGTCGAQTQRIRCRVPCNWKKEFGADCKYKFENWGACDGGTGTKVRQGTLKKARYNAQCQETIRVTKPCTPKTKAKAKAKKGKGKD
The molecule B1 gave a Kd of 160 nM. This counts as sub-micromolar.

The values above are taken from article PMC3024247.
